Measured values as given in paper PMC5301497, “Dimerisation induced formation of the active site and the identification of three metal sites in EAL-phosphodiesterases” (Scientific Reports, 2017).

What was measured:
[1] = molecular target: the molecule itself; assay: crystal structure; PA3825^EAL metal-free apo, tetragonal crystal P4_(3)2_(1)2, 1 molecule/AU, 1.60 Å
[2] = molecular target: the molecule itself; assay: crystal structure; MucR^EAL with c-di-GMP/Mg^2+, P2_(1), 2 molecules/AU, 2.27 Å; Morpheus Buffer System 1 pH 6.5, 21 °C

| Protein | binding result [1] | binding result [2] |
| --- | --- | --- |
| EAL domain of PA3825 (residues 255–517) (domain or fragment, Pseudomonas aeruginosa PAO1, UniProt Q9HXH7 255-517, looked up, PA3825, Pseudomonas aeruginosa PAO1, EAL phosphodiesterase domain, residues 255-517; The residue numbers of the results (Glu39, Asp160, Asp161, Glu217, loop 160-170) cannot count on the full-length protein; they seem to count on the crystallised domain or the PDB entries; Cloned into the popinF vector; Seen as a 'closed dimer' in the crystal; also called PA3825^EAL; PA3825-EAL; source: E. coli …) SRRVASPSSELRRALEANEFIPYYQPLSPGQGGRWIGVEVLMRWRHPREGLIRPDLFIPFAERSGLIVPMTRALMRQVAEDLGGHAGKLEPGFHIGFNISATHCHELALVDDCRELLAAFPPGHITLVLELTERELIESSEVTDRLFDELHALGVKIAIDDFGTGHSSLAYLRKFQVDCLKIDQSFVARIGIDTLSGHILDSIVELSAKLDLDIVAEGVETPEQRDYLAARGVDYLQGYLIGRPMPLESLLSSLTVQEGQGAS | binds | – |
| EAL domain of MucR (residues 425–685) (domain or fragment, Pseudomonas aeruginosa PAO1, UniProt Q9I310 425-685, looked up, MucR (PA1727), Pseudomonas aeruginosa PAO1, EAL phosphodiesterase domain, residues 425-685; Cloned into pET-28a through NdeI and HindIII, which would give an N-terminal His6 tag with a thrombin site (surmised); no cleavage of the tag is described; Seen as the 'classic dimer' in the crystal, 2 molecules in the asymmetric unit; also called MucR^EAL; MucR-EAL; source: E. coli BL21 DE3, purified …) SSMNANAQEQLQLLHDLRQALERRQLVLHYQPKVLAPNGPMIGVEALLRWEHPQHGLITPGQFLPLAEKTGLIVQIGEWVLDEACRQMRLWLDGGHADWNIAVNLSALQFAHAGLVDSVRNALLRHSLEPSHLILEVTESTAMRDADASLVILEQLSAMGVGISIDDFGTGYSSLLYLKRLPASELKIDRGFINELAHDSDDAAIVSAIVALGRTLNLKIVAEGVETEAQQEFLTRLGCNSLQGFLLGRPMPAEQLLASVA | – | binds |
